The target in the test is T1, myc-tagged APP-AICD(C99) (UniProt P05067 672-770).
T1 construct: domain: APP-AICD(C99); also called APP-AID(C99); not shown: myc tag
The test can be described thus: co-IP from 293T lysate: anti-myc IP, anti-HA Western blot. On the technique in general: Immunoblotting shows a protein as a band on a membrane.

B1: HA-168 deletion mutant 118-264AA (other)
chain: GHPPTALESVMLGVGSRSVAGVCMSPITVIKTRYESGKYGYESIYAALRSIYHSEGHRGLFSGLTATLLRDAPFSGIYLMFYNQTKNIVPHDQVDATLIPITNFSCGIFAGILASLVTQPAGVIKTHMQLYPLKFQWIGQAVTLIFK
notes: not shown: HA tag
Take B1: the binding result was “binds”.

For the origin of these results see patent US20070299011A1 (TSINGHUA UNIVERSITY, published 2007).
